Test [1] addresses hemagglutinin (HA) on live influenza A virus A/Solomon Islands/3/06 H1N1 (Influenza A virus A/Solomon …). Description: cell-based or functional assay.
Test [2] has as its target hemagglutinin (HA) on live influenza A virus A/Wisconsin/67/05 H3N2 (Influenza A virus A/Wisconsin/67/2005 …). Description: cell-based or functional assay.
Test [3] deals with T1, hemagglutinin (HA) of influenza A/Solomon Islands/3/06 H1N1 (Influenza A virus A/Solomon …). Description: ELISA, inactivated whole virions coated; transfection supernatant set 5. For orientation: ELISA stands for enzyme-linked immunosorbent assay.
The target in test [4] is hemagglutinin (HA) of influenza A/Japan/305/57 H2N2 (Influenza A virus A/Japan/305/1957 …, UniProt P03451 16-562). The test is described as above.
Test [5] deals with T1, hemagglutinin (HA) of influenza …. Description: cell-based or functional assay.

B1: TCN-534 (5249_B02) (antibody, V domains shown)
VH: QVQLVQSGAEVKKPGSSVKVSCRESGGTFNGYTITWVRQAPGQGLEWMGGIIPMMGTVNYAQKLQGRVTITTDYFTKTAYMDLNNLRSEDTAMYYCVKIRYTGQQLLWGQGTLVTVSS
VL: DIQMTQSPSTLSASIGDRVTITCRASQSIASWLAWYQQKPGKAPKLLIYEAVNLESGVPSRFSGSGSGTDFTLTISSLQPDDFATYFCQHYGTISQTFGGGTKVEIK
For B1, the “% Neutralization” value turned out to be 65.7% in test [1] and 0% in test [2].

B2: TCN-543 (5081_G23) (antibody, V domains shown)
VH: QVHLVQSGAEVRKPGDSVKVSCKTSGYTFSTYPVAWVRQVPGQGLEWMGWISTYNGNTNFAQNFQGRVTLTTDTTTNTAYMEVRSLKFDDTAVYYCARVEGSYRDFWNNQNRFDPWGQGTLVTVSS
VL: SYVLTQPPSVSVAPGQTARISCGGSNIGGKSVHWYQQKPGQAPVLVVYDDSGRPSGIPERFSGSNSGDTATLTISRVEAGDEADYFCQVWDNFGGVFGTGTKVTVL
In the case of B2, the “% Neutralization” value in test [1] came to 98%; in test [2] it was 73%.

B3: TCN-550 (5096_F06) (antibody, V domains shown)
VH: QVQLQESGPGLVKPSETLSLTCTVSGASINSHYWSWIRQPPGKGLEWIGYVYYSGSTTYNPSLKSRVTLSVDTSKNQFSLNLSSVTAADTAFYYCARHPYDVLTGSGDWFDPWGQGTLVTVSS
VL: SYVLTQAPSVSVAPGQTARITCGGNAIGSKKVHWYQHKAGQAPVLVVYDDTDRPSGIPERFSGSNSWSTATLTINRVEAGDEADYYCQVWDFTIDHVVFGGGTKLTVL
Regarding B3, the “% Neutralization” value in test [2] was determined as 100%.

B4: TCN-560 (5084_P10) (antibody, V domains shown)
VH: EVQLVESGGGLVQPGGSLRLSCAASGFIFRNYWMSWVRQAPGKGLEWVANIKQDGREKYYVDSLRGRVNISRDNAENSLYLHMNSLRVEDTAVYFCARARMVVVTGDGFDVWGHGTMVTVSS
VL: DIQMTQSPSSLSASVGDRVTITCRASQNIKRYFNWYQQKPGKAPKLLIYAASNLENGVPSRFSGSGSGTDFTLTISSLQPEDFATYYCQQSFSKSWTFGQGTNVDIK
Turning to B4, the OD450 in test [3] came to 3.52 OD450; in test [4] it was 3.55 OD450. In addition, in test [5], the “% Neutralization” value was found to be 94%.

B5: TCN-538 (3206_O17) (antibody, V domains shown)
VH: QITLKESGPTLVKPTQTLTLTCVFSGFSLSITGVRVGWIRQPPGKALEWLALISWDDEKHYSPSLQSRLTITKDTSKNQVVLTMTNLDPVDTATYYCARSTDRGHVLRYFGWMLPGDAFDVWGQGTMVTVSS
VL: DIVMTQSPDFLPVSLGERATINCKSSQRVLYSSNNKNYLAWYQLKPGQPPKLIIYWASTRESGVPDRFSGSGSGTEFTLTISSLQAEDVAVYYCQQYYSRPYTFGQGTKLEIK
For B5, the “% Neutralization” value in test [1] is 21%; in test [2], 0%.

B6: TCN-544 (5082_A19) (antibody, V domains shown)
VH: QVQLQESGPGLVKPSETLSLTCTVSRGSIGHYFWSWIRQPPGKGLEWIGYISYSGSTKYNPSLRSRVTISVDTSKNQFSLNLNSVTATDTALYYCAREDYDILTGAGPGMEVWGQGTTVTVSS
VL: QSMLTQPPSASGTPGQRVTISCSGSSSNIGSNTVNWFKHLPGTAPKLLIYRNDLRPSGVPDRFSGSKSGTSASLAISGLQSEDEADYYCATWDDSLNGFYVFGTGTKVTVL
As to B6, in test [2], the “% Neutralization” value is 97%.

B7: TCN-552 (5249_I23) (antibody, V domains shown)
VH: QVQVVQSGAEVKKPGSSVRVSCQASGGTFMNYAIIWVRRAPGQGLEWMGGIIPVFPTPNYAQMFQGRVTISTDESRSTSFLELTNLRYEDTAVYYCARRIYHGGNSGFDFWGQGTLVTVSS
VL: EIVLTQSPATLSLSPGERATLSCRASQSVGNYLAWYQQKPGQAPRLLIYDSSNRAPGIPARFSGSGSGTDFTLTISSLAPEDFAVYYCQQRSKWPPMYSFGHGTKLEIK
In the case of B7, the “% Neutralization” value was determined as 0% in test [1] and 14% in test [2].

B8: TCN-537 (3194_D21) (antibody, V domains shown)
VH: QVQLQQWGSGLLKPSETLSLTCAVYGGSFRDDYWTWIRQPPGKGLEWIGEINHSGRTNYNPSLKSRVTISVDTSLKQFSLKVISVTAADTAVYYCARGTSHVSRYFDWLPPTNWFDPWGQGTQVTVSS
VL: DIVLTQSPGTLSLSPGERATLSCRASQSVSSSYLAWYQQKPGQAPRLVMYGAATRATGIPDRFSGSGSGPDFTLTISRLEPEDFAMYYCQQYGNSPITFGQGTRLEIK
With B8, the “% Neutralization” value in test [1] and in test [2] was 0% each time.

B9: TCN-551 (5243_D01) (antibody, V domains shown)
VH: EVQLVQSGSEVKKPGESLKISCKGSGYSFSNYWIGWVRHMPGKGLEWMGIIYPGDSDTRYSPSFQGQVTMSADKSSSTVYLQWSSLKASDTAIYYCARRGGHSFGYGSGGDTHSEFDSWGQGTLVTVSS
VL: QSVLTQSPSVSAAPGQKVTISCSGSDSNIGDYFVCWYQHLPGKPPQLLIYENNKRPSGIPDRFSGSKSGTSATLGITGIQTGDEADYYCATWDGSLSAWVFGGGTKLTVL
Regarding B9, the results for the “% Neutralization” value in test [1] and in test [2] were 99% and 6%, respectively.

B10: TCN-540 (5060_F05) (antibody, V domains shown)
VH: QVQLVQSGGGVVQPGRSLRLSCAASGFTFSSYAMHWVRQAPGKGLEWVAIISYDGNDQYYTDSVKGRFTISRDSSKVYLQMHRLRPEDTAVYYCAKEFETSGYFHGSFDYWGQGILVTVSS
VL: QSALTQPASVSGSPGQSITISCTGTSSDVGGYNYVSWYQQHPGKAPKLLIYEVTNWPSGVSNRFSGSKSGNTASLTISGLQAEDEADYYCSSYAGSSTWVFGGGTRVTVL
B10: the “% Neutralization” value amounted to 3% in test [1] and 98% in test [2].

B11: TCN-539 (5056_A08) (antibody, V domains shown)
VH: QVQLVESGGGVVQPGRSLRLSCAASEITFITYAMHWVRQAPGKGLEWVALISDDGSNKFYADSVKGRFTISRDNSKNTLYLQMNSLRAEDTAAYYCAREGVYFDSGTYRGYFDYWGQETLVTVSS
VL: EIVLTQSPATLSLSPGERATLSCRASQSVSSYLAWYQQKPGQAPRLLIYDASNRATGIPARFSGSGSGTDFTLTISSLEPEDFAVYYCQQRSHWPPITFGQGTRLEIK
For the molecule B11, the “% Neutralization” value in test [2] is 99%.

B12: TCN-545 (5082_I15) (antibody, V domains shown)
VH: QVQLQQWGAGLLKPSETLSLSCAVFGGSFSDYYWTWIRQPPGKGLEWIGEIKHSGRTNYNPSLESRVTISVDTSKNQFSLKLSSVTAADTAIYYCARGTDPDTEGYCRSGSCSAFDFWGQGTLVTVSS
VL: EIVLTQSPGTLSLSPGERATLSCRASHFVNYRSLAWYQQTPGQVPRLLIYGASTRATGIPDRFSGSGSGTDFTLTISRLEPEDFAVYFCQQYGGSPRYTFGQGTRLEIK
On to B12, for which the “% Neutralization” value in test [1] was determined as 88%; in test [2], 99%.

B13: TCN-536 (5095_N01) (antibody, V domains shown)
VH: QVQLQQWGAGLLKPSETLSLTCAVYGGSFSVSGYYWSWIRQPPGRGLEWIGEISHGGSTNYNPSLKSRVTISVDTTKNQFSLRLSSVTAADTAVYYCARGTDPDTEVYCRVGNCAAFDYWGQGSLVTVSS
VL: EIILAQSPGTLSLSPGERATLSCRASQFVSTRSLAWYQQRPGQAPRLLIYGASSRATGIPDRFSGSGSGTDFTLTISRLEPEDFAVYYCQHYGYSPRYAFGQGSKVEIK
Consider B13, for which the “% Neutralization” value in test [1] came to 81.6%; in test [2], 99.9%.

B14: TCN-555 (5246_L16) (antibody, V domains shown)
VH: QVQLVQSGAEVKRPGSSVKVSCTASGGIFRKNAISWVRQAPGQGLEWMGGIIAVFNTANYAQKFQNRVKITADESGNTAYMELSSLTSDDTAVYYCASHPKYFYGSGSYPDFWGQGTLVTVSS
VL: QSALTQPRSVSGSPGQSITISCTGGSSDIGASNSVSWYQQHPGKAPKLVIFDVTERPSGVPHRFSGSKSGNTASLTVSGLQPDDEADYFCCAYGGKYLVVFGGGTKVTVL
Turning to B14, the figures for the OD450 in test [3] and in test [4] were 3.57 OD450 and 2.1 OD450, respectively. In addition, in test [5], the “% Neutralization” value amounted to 48%.

B15: TCN-554 (5277_M05) (antibody, V domains shown)
VH: QVQLVQSGADLKKPGASVKVSCKASGYTFTDYYIHWVRQAPGQGLEWMGWINPESGDTKYAQKFQGRVTMTRDTSITTAYMELGRLRSDDTAVYYCARDVSTTWSWFAPWGQGTLVTVSS
VL: DIVMTQSPDSLAVSLGERATINCRSSQSIFHNSNNENYLAWYQQKPGQPPKLLIYWASTRESGVPDRFSGSGSGTDFTLTISSLQAEDVAVYFCQQYYNAPLTFGGGTKVEIK
For the molecule B15, the “% Neutralization” value in test [2] amounted to 100%.

B16: TCN-554 (5277_M05) (antibody, V domains shown)
VH: QVQLVQSGADLKKPGASVKVSCKASGYTFTDYYIHWVRQAPGQGLEWMGWINPESGDTKYAQKFQGRVTMTRDTSITTAYMELGRLRSDDTAVYYCARDVSTTWSWFAPWGQGTLVTVSS
VL: DIVMTQSPDSLAVSLGERATINCRSSQSIFHNSNNENYLAWYQQKPGQPPKLLIYWASTRESGVPDRFSGSGSGTDFTLTISSLQAEDVAVYFCQQYYNAPLTFGGGTKVEIK
For B16, the OD450 is 0.18 OD450 in test [3] and 0.11 OD450 in test [4]. Also, the “% Neutralization” value in test [5] is 42%.

B17: TCN-553 (5261_C18) (antibody, V domains shown)
VH: QVQVVQSGTEVKKPGSSVKVSCQTSGGRFMSYAITWVRQAPGQGLEWMGGIVPVFGTANYAQKFQGRVTITTDDSTRTAYMELSSLRSEDTAVYYCGFRYGSGYGFDSWGQGTLVTVSS
VL: EIVLTQSPGTLSLSPGERATLSCRASQSVSSSYLAWYQKKPGQAPRLLIYGASTRATGIPDRFTGSGSGTDFTLSISRLEPEDFAVYYCQHFGTSVFTFGGGTKVEIK
As to B17, the “% Neutralization” value in test [1] came out at 44%; in test [2], 5%.

B18: TCN-553 (5261_C18) (antibody, V domains shown)
VH: QVQVVQSGTEVKKPGSSVKVSCQTSGGRFMSYAITWVRQAPGQGLEWMGGIVPVFGTANYAQKFQGRVTITTDDSTRTAYMELSSLRSEDTAVYYCGFRYGSGYGFDSWGQGTLVTVSS
VL: EIVLTQSPGTLSLSPGERATLSCRASQSVSSSYLAWYQKKPGQAPRLLIYGASTRATGIPDRFTGSGSGTDFTLSISRLEPEDFAVYYCQHFGTSVFTFGGGTKVEIK
Take B18: the values for the OD450 in test [3] and in test [4] were 3.56 OD450 and 3.28 OD450, respectively. Also, in test [5], the “% Neutralization” value turned out to be 87%.

Values taken from patent US20120207760A1 (THERACLONE SCIENCES, published 2012).
